Assay results reported in article PMC4041747, “Structural and Mutagenic Analysis of the RM Controller Protein C.Esp1396I” (PLoS ONE, 2014).
Numbering of substitutions follows the chain as printed. Numbers in names are those of the source.

B1: C.Esp1396I wild type (RM controller protein) (natural protein)
chain: MESFLLSKVSFVIKKIRLEKGMTQEDLAYKSNLDRTYISGIERNSRNLTIKSLELIMKGLEVSDVVFFEMLIKEILKHD
notes: controller (C) protein C.Esp1396I of the Esp1396I restriction-modification system; Residues may be left at the N-terminus after thrombin cleavage; also called native protein; WT; not shown: His6, N-terminal, cleaved
B2: C.Esp1396I Y37A mutant (natural protein)
chain: B1 chain with Y37A
notes: controller (C) protein C.Esp1396I with Y37A; Gene synthesised by GenScript; not shown: His6, N-terminal, cleaved
B3: C.Esp1396I R46A mutant (natural protein)
chain: B1 chain with R46A
notes: controller (C) protein C.Esp1396I with R46A; Crystallised in two space groups (C2 and P3(2)); not shown: His6, N-terminal, cleaved
B4: C.Esp1396I Y37F mutant (natural protein)
chain: B1 chain with Y37F
notes: controller (C) protein C.Esp1396I with Y37F; Gene synthesised by GenScript; not shown: His6, N-terminal, cleaved
B5: C.Esp1396I S52A mutant (natural protein)
chain: B1 chain with S52A
notes: controller (C) protein C.Esp1396I with S52A; Gene synthesised by GenScript; not shown: His6, N-terminal, cleaved
B6: C.Esp1396I T36A mutant (natural protein)
chain: B1 chain with T36A
notes: controller (C) protein C.Esp1396I with T36A; not shown: His6, N-terminal, cleaved

How the values were obtained:
[1] = system: C.Esp1396I R46A (Enterobacter sp. RFL1396?); experiment: SPR; conditions: SPR (Biacore T-100): 130 mM NaCl, 10 mM HEPES pH 7.4, 0.05% Tween-20; temperature not stated; 20-1000 nM total protein
[2] = system: C.Esp1396I S52A (Enterobacter sp. RFL1396?); experiment: SPR; conditions: SPR (Biacore T-100): 130 mM NaCl, 10 mM HEPES pH 7.4, 0.05% Tween-20; temperature not stated; 20-1000 nM total protein
[3] = system: C.Esp1396I Y37A (Enterobacter sp. RFL1396?); experiment: SPR; conditions: SPR (Biacore T-100): 130 mM NaCl, 10 mM HEPES pH 7.4, 0.05% Tween-20; temperature not stated; 20-1000 nM total protein
[4] = system: C.Esp1396I Y37F (Enterobacter sp. RFL1396?); experiment: SPR; conditions: SPR (Biacore T-100): 130 mM NaCl, 10 mM HEPES pH 7.4, 0.05% Tween-20; temperature not stated; 20-1000 nM total protein
[5] = system: C.Esp1396I wild type (Enterobacter sp. RFL1396?); experiment: SPR; conditions: SPR (Biacore T-100): 130 mM NaCl, 10 mM HEPES pH 7.4, 0.05% Tween-20; temperature not stated; 20-1000 nM total protein
[6] = target: the molecule itself; experiment: crystal structure; free protein crystals, protein at 2-14 mg/mL, diffraction data at 100 K; dimer of the protein with itself

Molecule	binding result [6]	also measured
OM operator duplex		Kd [1]: 15.8 nM; Kd [2]: 2.6 nM; Kd [3]: 5.5 nM; Kd [4]: 1.8 nM; Kd [5]: 0.51 nM
B1	binds	
B2	binds	
B3	binds	
B4	binds	
B5	binds	
B6	binds	
